Laboratory results: the supplement of paper PMC10567573

B1: TIA1 (parent)
chain: TYECRCIGEEKEMWNFGEKYARF

Variants of: B1
Experiment: protein stability index of a GFP-peptide fusion (GPS, HEK-293T) (PSI 1-6); higher = more stable
Conditions: c terminus: native
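Also: lentivirally expressed fusions sorted by FACS into six bins by GFP to DsRed ratio, PSI derived from sequencing read proportions per bin multiplied by bin number.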

Variant | protein stability index
TYECRCIGEEKEMWNFGEKSARF | 3.24
TYECRCIGEEKEMWNFGEKMARF | 3.19
TYECRCIGEEKEMWNFGEKFARF | 2.86
TYECRCIGEEKEMWNFGEKKARF | 3.52
TYECRCIGEEKEMWNFGEKWARF | 2.31
TYECRCIGEEKEMWNFGEKCARF | 1.81
TYECRCIGEEKEMWNFGEKHARF | 3.71
TYECRCIGEEKEMWNFGEKIARF | 1.7
TYECRCIGEEKEMWNFGEKQARF | 4
TYECRCIGEEKEMWNFGEKAARF | 2.58
TYECRCIGEEKEMWNFGEKDARF | 3.16
TYECRCIGEEKEMWNFGEKNARF | 2.26
TYECRCIGEEKEMWNFGEKLARF | 1.54
TYECRCIGEEKEMWNFGEKPARF | 1.11
TYECRCIGEEKEMWNFGEKTARF | 2.61
TYECRCIGEEKEMWNFGEKEARF | 3.6
TYECRCIGEEKEMWNFGEKGARF | 3.89
TYECRCIGEEKEMWNFGEKVARF | 3.04
TYECRCIGEEKEMWNTGEKYARF | 3
TYECRCIGEEKEMWNNGEKYARF | 1.85
TYECRCIGEEKEMWNSGEKYARF | 2.66
TYECRCIGEEKEMWNRGEKYARF | 2.14
TYECRCIGEEKEMWNEGEKYARF | 2.9
TYECRCIGEEKEMWNMGEKYARF | 3

Variant | protein stability index
TYECRCIGEEKEMWNVGEKYARF | 2.45
TYECRCIGEEKEMWNCGEKYARF | 2.42
TYECRCIGEEKEMWNWGEKYARF | 1.77
TYECRCIGEEKEMWNPGEKYARF | 1.91
TYECRCIGEEKEMWNYGEKYARF | 2.2
TYECRCIGEEKEMWNLGEKYARF | 1.74
TYECRCIGEEKEMWNHGEKYARF | 2.26
TYECRCIGEEKEMWNDGEKYARF | 2.78
TYECRCIGEEKEMWNGGEKYARF | 2.29
TYECRCIGEEKEMWNKGEKYARF | 2.44
TYECRCIGEEKEMWNIGEKYARF | 1.57
TYECRCIGEEKEMWNFGEKYARI | 1.59
TYECRCIGEEKEMWNFGEKYARM | 2.54
TYECRCIGEEKEMWNFGEKYARG | 2.11
TYECRCIGEEKEMWNFGEKYARY | 2.18
TYECRCIGEEKEMWNFGEKYARL | 1.29
TYECRCIGEEKEMWNFGEKYART | 1.87
TYECRCIGEEKEMWNFGEKYARP | 2.69
TYECRCIGEEKEMWNFGEKYARW | 2.64
TYECRCIGEEKEMWNFGEKYARC | 1.61
TYECRCIGEEKEMWNFGEKYARD | 3.5
TYECRCIGEEKEMWNFGEKYARA | 3.29
TYECRCIGEEKEMWNFGEKYARK | 3.29
TYECRCIGEEKEMWNFGEKYARE | 3.42

Variant | protein stability index
TYECRCIGEEKEMWNFGEKYARQ | 1.48
TYECRCIGEEKEMWNFGEKYARS | 2.2
TYECRCIGEEKEMWNFGEKYARR | 1.52
TYECRCIGEEKEMWNFGEKYARN | 1.87
TYECRCIGEEKEMWNFGEKYARH | 1.83
TYECRCIGEEKEMWNFGEKYAHF | 2.82
TYECRCIGEEKEMWNFGEKYAYF | 1.81
TYECRCIGEEKEMWNFGEKYASF | 2.29
TYECRCIGEEKEMWNFGEKYATF | 2.49
TYECRCIGEEKEMWNFGEKYANF | 3.1
TYECRCIGEEKEMWNFGEKYADF | 3.77
TYECRCIGEEKEMWNFGEKYAAF | 1.79
TYECRCIGEEKEMWNFGEKYAKF | 3.59
TYECRCIGEEKEMWNFGEKYAWF | 1.6
TYECRCIGEEKEMWNFGEKYAQF | 2.92
TYECRCIGEEKEMWNFGEKYAVF | 2.84
TYECRCIGEEKEMWNFGEKYAGF | 2.63
TYECRCIGEEKEMWNFGEKYALF | 1.01
TYECRCIGEEKEMWNFGEKYAEF | 3.2
TYECRCIGEEKEMWNFGEKYAFF | 2.23
TYECRCIGEEKEMWNFGEKYACF | 1.36
TYECRCIGEEKEMWNFGEKYAPF | 1.92
TYECRCIGEEKEMWNFGEKYAMF | 1.51
TYECRCIGEEKEMWNFGMKYARF | 1.81

Variant | protein stability index
TYECRCIGEEKEMWNFGTKYARF | 1.67
TYECRCIGEEKEMWNFGIKYARF | 2.3
TYECRCIGEEKEMWNFGNKYARF | 1.79
TYECRCIGEEKEMWNFGCKYARF | 2.41
TYECRCIGEEKEMWNFGAKYARF | 1.27
TYECRCIGEEKEMWNFGFKYARF | 2.24
TYECRCIGEEKEMWNFGQKYARF | 1.8
TYECRCIGEEKEMWNFGLKYARF | 1.94
TYECRCIGEEKEMWNFGSKYARF | 1.97
TYECRCIGEEKEMWNFGYKYARF | 1.89
TYECRCIGEEKEMWNFGKKYARF | 2.49
TYECRCIGEEKEMWNFGVKYARF | 3
TYECRCIGEEKEMWNFGDKYARF | 2.22
TYECRCIGEEKEMWNFGWKYARF | 3.12
TYECRCIGEEKEMWNFGHKYARF | 2.97
TYECRCIGEEKEMWNFGPKYARF | 1.65
TYECRCIGEEKEMWNFGELYARF | 1.59
TYECRCIGEEKEMWNFGEDYARF | 3.32
TYECRCIGEEKEMWNFGEFYARF | 2.16
TYECRCIGEEKEMWNFGESYARF | 2.27
TYECRCIGEEKEMWNFGEMYARF | 1.29
TYECRCIGEEKEMWNFGEGYARF | 2.51
TYECRCIGEEKEMWNFGEYYARF | 4.2
TYECRCIGEEKEMWNFGEQYARF | 2.41
